Measured values reported in IntAct's records for PubMed 31515488.

B1: Caspase-2 (Homo sapiens), P42575 (parent)
chain: MAAPSAGSWSTFQHKELMAADRGRRILGVCGMHPHHQETLKKNRVVLAKQLLLSELLEHLLEKDIITLEMRELIQAKVGSFSQNVELLNLLPKRGPQAFDAFCEALRETKQGHLEDMLLTTLSGLQHVLPPLSCDYDLSLPFPVCESCPLYKKLRLSTDTVEHSLDNKDGPVCLQVKPCTPEFYQTHFQLAYRLQSRPRGLALVLSNVHFTGEKELEFRSGGDVDHSTLVTLFKLLGYDVHVLCDQTAQEMQEKLQNFAQLPAHRVTDSCIVALLSHGVEGAIYGVDGKLLQLQEVFQLFDNANCPSLQNKPKMFFIQACRGDETDRGVDQQDGKNHAGSPGCEESDAGKEKLPKMRLPTRSDMICGYACLKGTAAMRNTKRGSWYIEALAQVFSERACDMHVADMLVKVNALIKDREGYAPGTEFHRCKEMSEYCSTLCRHLYLFPGHPPT
B2: Myogenin (Homo sapiens), P15173 (parent)
chain: MELYETSPYFYQEPRFYDGENYLPVHLQGFEPPGYERTELTLSPEAPGPLEDKGLGTPEHCPGQCLPWACKVCKRKSVSVDRRRAATLREKRRLKKVNEAFEALKRSTLLNPNQRLPKVEILRSAIQYIERLQALLSSLNQEERDLRYRGGGGPQPGVPSECSSHSASCSPEWGSALEFSANPGDHLLTADPTDAHNLHSLTSIVDSITVEDVSVAFPDETMPN
B3: Tuftelin-interacting protein 11 (Homo sapiens), Q9UBB9 (parent)
chain: MSLSHLYRDGEGRIDDDDDERENFEITDWDLQNEFNPNRQRHWQTKEEATYGVWAERDSDDERPSFGGKRARDYSAPVNFISAGLKKGAAEEAELEDSDDEEKPVKQDDFPKDFGPRKLKTGGNFKPSQKGFAGGTKSFMDFGSWERHTKGIGQKLLQKMGYVPGRGLGKNAQGIINPIEAKQRKGKGAVGAYGSERTTQSMQDFPVVDSEEEAEEEFQKELSQWRKDPSGSKKKPKYSYKTVEELKAKGRISKKLTAPQKELSQVKVIDMTGREQKVYYSYSQISHKHNVPDDGLPLQSQQLPQSGKEAKAPGFALPELEHNLQLLIDLTEQEIIQNDRQLQYERDMVVNLFHELEKMTEVLDHEERVISNLSKVLEMVEECERRMQPDCSNPLTLDECARIFETLQDKYYEEYRMSDRVDLAVAIVYPLMKEYFKEWDPLKDCTYGTEIISKWKSLLENDQLLSHGGQDLSADAFHRLIWEVWMPFVRNIVTQWQPRNCDPMVDFLDSWVHIIPVWILDNILDQLIFPKLQKEVENWNPLTDTVPIHSWIHPWLPLMQARLEPLYSPIRSKLSSALQKWHPSDSSAKLILQPWKDVFTPGSWEAFMVKNIVPKLGMCLGELVINPHQQHMDAFYWVIDWEGMISVSSLVGLLEKHFFPKWLQVLCSWLSNSPNYEEITKWYLGWKSMFSDQVLAHPSVKDKFNEALDIMNRAVSSNVGAYMQPGARENIAYLTHTERRKDFQYEAMQERREAENMAQRGIGVAASSVPMNFKDLIETKAEEHNIVFMPVIGKRHEGKQLYTFGRIVIYIDRGVVFVQGEKTWVPTSLQSLIDMAK
partner: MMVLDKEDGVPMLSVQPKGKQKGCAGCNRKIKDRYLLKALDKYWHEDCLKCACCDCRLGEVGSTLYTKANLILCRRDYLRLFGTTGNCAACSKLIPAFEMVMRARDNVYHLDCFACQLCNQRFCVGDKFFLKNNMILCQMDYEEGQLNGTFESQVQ
B4: Spermatogenesis-associated protein 2 (Homo sapiens), Q9UM82 (parent)
chain: MGKPSSMDTKFKDDLFRKYVQFHESKVDTTTSRQRPGSDECLRVAASTLLSLHKVDPFYRFRLIQFYEVVESSLRSLSSSSLRALHGAFSMLETVGINLFLYPWKKEFRSIKTYTGPFVYYVKSTLLEEDIRAILSCMGYTPELGTAYKLRELVETLQVKMVSFELFLAKVECEQMLEIHSQVKDKGYSELDIVSERKSSAEDVRGCSDALRRRAEGREHLTASMSRVALQKSASERAAKDYYKPRVTKPSRSVDAYDSYWESRKPPLKASLSLRKEPVATDVGDDLKDEIIRPSPSLLTMASSPHGSPDVLPPASPSNGPALLRGTYFSTQDDVDLYTDSEPRATYRRQDALRPDVWLLRNDAHSLYHKRSPPAKESALSKCQSCGLSCSSSLCQRCDSLLTCPPASKPSAFPSKASTHDSLAHGASLREKYPGQTQGLDRLPHLHSKSKPSTTPTSRCGFCNRPGATNTCTQCSKVSCDACLSAYHYDPCYKKSELHKFMPNNQLNYKSTQLSHLVYR
partner: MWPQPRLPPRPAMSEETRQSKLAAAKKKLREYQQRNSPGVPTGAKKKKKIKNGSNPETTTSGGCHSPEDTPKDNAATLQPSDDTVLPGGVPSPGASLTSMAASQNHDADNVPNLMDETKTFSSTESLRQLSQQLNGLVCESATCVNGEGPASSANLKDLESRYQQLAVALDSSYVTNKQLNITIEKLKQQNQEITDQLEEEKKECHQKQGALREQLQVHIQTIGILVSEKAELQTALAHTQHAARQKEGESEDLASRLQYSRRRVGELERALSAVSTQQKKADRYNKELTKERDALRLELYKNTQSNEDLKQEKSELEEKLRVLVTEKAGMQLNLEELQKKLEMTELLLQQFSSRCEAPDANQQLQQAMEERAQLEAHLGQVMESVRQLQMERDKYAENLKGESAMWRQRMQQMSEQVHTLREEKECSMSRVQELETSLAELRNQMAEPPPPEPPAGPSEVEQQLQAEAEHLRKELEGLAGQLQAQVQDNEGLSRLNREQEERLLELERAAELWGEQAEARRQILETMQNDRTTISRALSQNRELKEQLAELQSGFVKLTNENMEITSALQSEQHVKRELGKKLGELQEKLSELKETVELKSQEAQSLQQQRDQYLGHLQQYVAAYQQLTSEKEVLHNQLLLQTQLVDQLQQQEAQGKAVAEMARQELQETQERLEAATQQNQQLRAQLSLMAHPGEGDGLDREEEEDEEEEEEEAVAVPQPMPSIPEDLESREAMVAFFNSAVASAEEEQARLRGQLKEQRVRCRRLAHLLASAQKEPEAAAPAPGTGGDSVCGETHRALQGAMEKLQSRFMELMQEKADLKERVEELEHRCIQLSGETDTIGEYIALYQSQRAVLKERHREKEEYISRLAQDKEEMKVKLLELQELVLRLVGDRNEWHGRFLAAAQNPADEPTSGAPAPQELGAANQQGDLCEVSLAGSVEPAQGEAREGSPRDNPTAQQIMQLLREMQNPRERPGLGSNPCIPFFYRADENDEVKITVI
B5: Cyclin-D1-binding protein 1 (Homo sapiens), O95273 (parent)
chain: MASATAPAAAVPTLASPLEQLRHLAEELRLLLPRVRVGEAQETTEEFNREMFWRRLNEAAVTVSREATTLTIVFSQLPLPSPQETQKFCEQVHAAIKAFIAVYYLLPKDQGITLRKLVRGATLDIVDGMAQLMEVLSVTPTQSPENNDLISYNSVWVACQQMPQIPRDNKAAALLMLTKNVDFVKDAHEEMEQAVEECDPYSGLLNDTEENNSDNHNHEDDVLGFPSNQDLYWSEDDQELIIPCLALVRASKACLKKIRMLVAENGKKDQVAQLDDIVDISDEISPSVDDLALSIYPPMCHLTVRINSAKLVSVLKKALEITKASHVTPQPEDSWIPLLINAIDHCMNRIKELTQSELEL
partner: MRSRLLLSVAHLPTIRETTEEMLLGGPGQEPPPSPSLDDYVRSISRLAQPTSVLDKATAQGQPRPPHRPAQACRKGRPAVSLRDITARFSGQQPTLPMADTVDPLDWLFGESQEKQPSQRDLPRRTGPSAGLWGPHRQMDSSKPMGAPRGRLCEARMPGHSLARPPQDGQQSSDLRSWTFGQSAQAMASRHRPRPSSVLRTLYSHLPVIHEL

Variants of: B1
Settings: with cradd_human CRADD

Variant | effect of a mutation on the interaction
G349S | with no effect

Variants of: B2
Settings: with fril_human FTL

Variant | effect of a mutation on the interaction
R147C | with no effect
P49H | with no effect

Variants of: B2
Settings: with if4e2_human EIF4E2, O60573
if4e2_human EIF4E2, O60573, sequence (O60573 whole entry): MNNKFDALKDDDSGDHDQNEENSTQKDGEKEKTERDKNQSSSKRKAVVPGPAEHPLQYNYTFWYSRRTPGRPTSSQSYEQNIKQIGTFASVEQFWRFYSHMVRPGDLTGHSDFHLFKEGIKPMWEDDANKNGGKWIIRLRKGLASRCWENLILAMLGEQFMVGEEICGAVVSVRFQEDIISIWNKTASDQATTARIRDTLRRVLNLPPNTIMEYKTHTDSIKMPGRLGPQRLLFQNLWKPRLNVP

Variant | effect of a mutation on the interaction
A181T | disrupting interaction strength
P49H | with no effect

Variants of: B2
Settings: with cc28a_human CCDC28A

Variant | effect of a mutation on the interaction
A181T | disrupting interaction strength

Variants of: B2
Settings: with mlh1_human MLH1, P40692
mlh1_human MLH1, P40692, sequence (P40692 whole entry): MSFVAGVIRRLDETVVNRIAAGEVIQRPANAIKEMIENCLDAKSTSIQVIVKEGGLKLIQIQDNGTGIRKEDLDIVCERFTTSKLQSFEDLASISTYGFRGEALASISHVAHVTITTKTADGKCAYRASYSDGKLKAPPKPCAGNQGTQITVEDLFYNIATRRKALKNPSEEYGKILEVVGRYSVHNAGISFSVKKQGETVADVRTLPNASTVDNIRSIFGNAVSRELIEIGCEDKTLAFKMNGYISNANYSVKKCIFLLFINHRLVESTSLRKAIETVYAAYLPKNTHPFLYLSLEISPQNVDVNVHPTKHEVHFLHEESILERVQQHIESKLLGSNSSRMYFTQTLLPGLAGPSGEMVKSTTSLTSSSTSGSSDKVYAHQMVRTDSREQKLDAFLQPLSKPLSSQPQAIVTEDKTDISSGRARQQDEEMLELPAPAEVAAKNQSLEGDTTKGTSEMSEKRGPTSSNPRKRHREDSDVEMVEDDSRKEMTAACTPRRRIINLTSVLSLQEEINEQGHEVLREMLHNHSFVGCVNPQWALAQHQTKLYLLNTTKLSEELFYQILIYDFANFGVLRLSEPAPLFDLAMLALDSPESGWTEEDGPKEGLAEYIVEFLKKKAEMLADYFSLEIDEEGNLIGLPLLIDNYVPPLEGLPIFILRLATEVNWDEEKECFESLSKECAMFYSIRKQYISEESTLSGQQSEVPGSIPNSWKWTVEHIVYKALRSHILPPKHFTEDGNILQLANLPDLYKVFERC

Variant | effect of a mutation on the interaction
A181T | disrupting interaction strength
P49H | with no effect

Variants of: B3
Settings: with rbtn1_human LMO1, P25800

Variant | effect of a mutation on the interaction
S688L | with no effect
R8Q | with no effect

Variants of: B4
Settings: with goga2_human GOLGA2, Q08379

Variant | effect of a mutation on the interaction
L443F | with no effect

Variants of: B5
Settings: with depp1_human DEPP1, Q9NTK1

Variant | effect of a mutation on the interaction
I277T | disrupting interaction strength
